From paper PMC2914671, “A VLP-based vaccine targeting domain III of the West Nile virus E protein protects from lethal infection in mice” (Virology Journal, 2010) come the findings set out here.

This series concerns the molecule itself. Kind of series: transmission electron microscopy; purified AP205 VLPs adsorbed onto carbon-Formvar-coated grids, stained with 2% phosphotungstic acid.

B1: AP205 virus-like particles (recombinantly expressed coat protein of bacteriophage AP205) (natural protein)
chain: MANKPMQPITSTANKIVWSDPTRLSTTFSASLLRQRVKVGIAELNNVSGQYVSVYKRPAPKPEGCADACVIMPNENQSIRTVISGSAENLATLKAEWETHKRNVDTLFASGNAGLGFLDPTAAIVSSDTTA
notes: coat protein of the Acinetobacter bacteriophage AP205; monomer 14.0 kDa; The VLPs hold about 25-30 ug of host cell RNA per 100 ug of coat protein; also called AP205 VLPs; AP205 VLP carrier; source: E. coli, purified from cleared lysates (Fractogel TMAE anion exchange, hydroxyapatite); copies: 180
Consider B1, for which the binding result is “binds”.
